Assay results reported in patent US20080058636A1, “METHODS OF MYOCARDIAL IMAGING” (Epix Pharmaceuticals, Inc., priority 2005, published 2008).
Bridge positions count the residues as written; N and C are the ends. Square brackets hold non-standard residues; d marks the D form. Ends that are not written are not given here. GdDTPA‑thiourea = GdT is GdDTPA-thiourea (Gd-DTPA chelate attached through a thiourea); Cha = N[C@@H](CC1CCCCC1)C(=O)O

The binders below were run against human collagen type I (acid soluble, extracted from placenta, Sigma C7774) (human) (UniProt P02452) (assay: dried collagen assay, 5 uM each).
Sequence of human collagen type I (acid soluble, extracted from placenta, Sigma C7774) (human) (P02452 162-1218 limits assumed, chain 1 of 2): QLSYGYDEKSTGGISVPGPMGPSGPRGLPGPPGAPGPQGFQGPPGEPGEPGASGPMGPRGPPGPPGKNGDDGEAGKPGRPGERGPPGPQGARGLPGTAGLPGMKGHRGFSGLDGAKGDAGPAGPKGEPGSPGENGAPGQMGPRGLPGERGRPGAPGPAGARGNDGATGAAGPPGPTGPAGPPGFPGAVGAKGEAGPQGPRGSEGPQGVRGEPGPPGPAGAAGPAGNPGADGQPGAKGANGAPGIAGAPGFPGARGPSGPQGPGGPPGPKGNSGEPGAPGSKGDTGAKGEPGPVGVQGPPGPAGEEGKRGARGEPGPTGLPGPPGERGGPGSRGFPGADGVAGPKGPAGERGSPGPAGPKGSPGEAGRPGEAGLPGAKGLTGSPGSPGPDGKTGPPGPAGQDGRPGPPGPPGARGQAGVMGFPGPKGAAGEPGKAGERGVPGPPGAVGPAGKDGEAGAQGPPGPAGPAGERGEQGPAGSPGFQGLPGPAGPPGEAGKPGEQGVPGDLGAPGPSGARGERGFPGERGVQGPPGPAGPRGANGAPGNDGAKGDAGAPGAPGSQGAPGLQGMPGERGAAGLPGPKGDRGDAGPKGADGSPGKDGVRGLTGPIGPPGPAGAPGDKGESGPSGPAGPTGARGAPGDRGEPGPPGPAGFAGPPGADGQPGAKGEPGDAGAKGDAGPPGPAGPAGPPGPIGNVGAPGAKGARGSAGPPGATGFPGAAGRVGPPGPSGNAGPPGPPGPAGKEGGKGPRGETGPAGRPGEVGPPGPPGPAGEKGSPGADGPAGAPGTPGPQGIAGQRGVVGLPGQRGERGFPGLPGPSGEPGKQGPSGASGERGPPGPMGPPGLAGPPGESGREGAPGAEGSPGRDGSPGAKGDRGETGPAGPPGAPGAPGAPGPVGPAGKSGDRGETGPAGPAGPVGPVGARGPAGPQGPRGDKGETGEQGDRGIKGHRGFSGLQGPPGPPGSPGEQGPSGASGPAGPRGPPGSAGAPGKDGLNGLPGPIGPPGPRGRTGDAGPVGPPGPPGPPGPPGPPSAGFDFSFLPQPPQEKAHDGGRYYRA
Sequence of human collagen type I (acid soluble, extracted from placenta, Sigma C7774) (human) (P08123 80-1119 limits assumed, chain 2 of 2, further chain): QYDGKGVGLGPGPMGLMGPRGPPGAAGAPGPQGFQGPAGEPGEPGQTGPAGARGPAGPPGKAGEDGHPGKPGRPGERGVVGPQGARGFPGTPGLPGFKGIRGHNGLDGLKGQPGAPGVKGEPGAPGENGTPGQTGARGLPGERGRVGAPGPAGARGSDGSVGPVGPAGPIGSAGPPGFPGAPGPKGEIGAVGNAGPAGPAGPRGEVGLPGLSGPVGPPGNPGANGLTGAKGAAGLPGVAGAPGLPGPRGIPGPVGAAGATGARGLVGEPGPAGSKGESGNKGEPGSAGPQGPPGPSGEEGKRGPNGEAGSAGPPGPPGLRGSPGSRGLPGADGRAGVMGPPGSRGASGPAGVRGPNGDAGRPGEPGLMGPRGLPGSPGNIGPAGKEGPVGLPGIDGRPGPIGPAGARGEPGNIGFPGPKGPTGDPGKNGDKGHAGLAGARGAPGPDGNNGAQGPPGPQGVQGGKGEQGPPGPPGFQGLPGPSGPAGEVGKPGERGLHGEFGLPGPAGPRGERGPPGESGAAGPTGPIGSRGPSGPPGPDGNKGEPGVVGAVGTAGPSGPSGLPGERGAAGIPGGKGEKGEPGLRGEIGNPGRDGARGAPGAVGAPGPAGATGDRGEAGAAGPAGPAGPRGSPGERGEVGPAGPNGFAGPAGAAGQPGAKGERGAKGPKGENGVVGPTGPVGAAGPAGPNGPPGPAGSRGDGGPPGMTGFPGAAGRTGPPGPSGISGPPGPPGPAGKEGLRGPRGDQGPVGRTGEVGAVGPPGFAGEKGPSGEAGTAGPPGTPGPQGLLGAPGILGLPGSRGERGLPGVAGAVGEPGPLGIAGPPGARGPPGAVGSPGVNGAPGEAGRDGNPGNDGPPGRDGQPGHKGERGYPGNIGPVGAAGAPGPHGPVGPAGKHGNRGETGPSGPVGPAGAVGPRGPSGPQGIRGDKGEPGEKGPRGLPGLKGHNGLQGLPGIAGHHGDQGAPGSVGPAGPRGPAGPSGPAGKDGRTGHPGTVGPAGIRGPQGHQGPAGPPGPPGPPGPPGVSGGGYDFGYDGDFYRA

Human binding | Binder
66% | GQWHCTTAFPHHYCLYG [Compound ID 853]
64% | GQWHCTTLFPHHYCIYG [Compound ID 927]
4% | GQWHCTRRFPHHYCLYG [Compound ID 900]
22% | DWTCSGDEYYWHCNYE [Compound ID 834]
8% | GQWHCTTRFPHAYCLYG [Compound ID 878]
87% | GQWTCYGDEYTWYCNYE [Compound ID 826]
67% | GAWHCTTRFPHHYCLYG [Compound ID 857]
30% | GQWHCTTRFPSHYCLYG [Compound ID 880]
13% | GDWHCTTLFPHHYCLYG [Compound ID 910]
16% | DWTCSLDEYTWHCNYE [Compound ID 847]
57% | KKWHCYTYFPHHYCLYG [Compound ID 802]
47% | DWTCRGDEYTWHCNYE [Compound ID 822]
64% | PPQWHCTTRFPHHYCLYG [Compound ID 854]
30% | GQWSCTTRFPHHYCLYG [Compound ID 870]
30% | GQWHCTTRFPAHYCLYG [Compound ID 865]
13% | DWTCSSDEYTWHCNYE [Compound ID 836]
31% | GKWHCTTLFPHHYCLYG [Compound ID 930]
66% | GQWHCTTRFPHHYCKYG [Compound ID 815]
60% | GQWTCSGDAYTWHCAYE [Compound ID 820]
20% | GQWHCTYRFPHHYCLYG [Compound ID 899]

Human binding | Binder
7% | GQWHCTTRFPHHRCLYG [Compound ID 902]
48% | {GdDTPA‑thiourea}-GQWHCTTRFPHHYCLYGK(GdDTPA‑thiourea)-NH2 (disulfide 5-14) [Compound ID 807]
15% | GSWHCTTLFPHHYCLYG [Compound ID 911]
70% | GQWTCSGDAYTWHCNYE [Compound ID 838]
23% | DWTCSGDEYTWYCNYE [Compound ID 842]
17% | DWTCSADEYTWHCNYE [Compound ID 835]
24% | GQWHCTTLFPHNYCLYG [Compound ID 924]
19% | GQWHCTT[Cha]FPHHYCLYG (disulfide 5-14 (inferred)) [Compound ID 918]
7% | GQWHCTTDYPHHYCLYG [Compound ID 895]
20% | PPWHCTTLFPHHYCLYG [Compound ID 912]
36% | DWTCSGDEYRWHCNYE [Compound ID 845]
15% | GAWHCTTYFPHHYCLYG [Compound ID 915]
68% | GQWHCTYLFPHHYCLYG [Compound ID 921]
26% | GAWTCSGDEYTWHCNYE [Compound ID 830]
5% | GQWHCTSRFPHHYCLYG [Compound ID 898]
56% | DWTCSRDEYTWHCNYE [Compound ID 821]
51% | GQWTCSGDEYTWHCNYA [Compound ID 841]
30% | GQWTCSGDEYTWHCAYE [Compound ID 839]
48% | GQWACTTRFPHHYCLYG [Compound ID 876]
14% | AWHCTTLFPHHYCLYG [Compound ID 909]

Human binding | Binder
53% | GQWTCSGDEYTWHCNY [Compound ID 823]
68% | GQWNCTTLFPHHYCLYG [Compound ID 922]
12% | GQWHCTTIFPHHYCLYG [Compound ID 917]
27% | GQWHCTTFFPHHYCLYG [Compound ID 929]
28% | GQWHCTTLFPNHYCLYG [Compound ID 923]
12% | PWTCSGDEYAWHCNYE [Compound ID 824]
15% | GQWACSGDEYTWHCNYE [Compound ID 840]
20% | DWTCSYDEYTWHCNYE [Compound ID 829]
27% | GQWHCTTRFPHHYCAYG [Compound ID 855]
47% | GQWHCTTRYPHHYCLYG [Compound ID 859]
4% | GQWHCTNRFPHHYCLYG [Compound ID 897]
13% | GQWTCSGDEYTWACNYE [Compound ID 833]
12% | GQWTCSGDEYAWHCNYE [Compound ID 832]
58% | GQWHCATRFPHHYCLYG [Compound ID 877]
73% | GQWHCTTLFPHHYCVYG [Compound ID 928]
38% | GQWHCTTDFPHHYCLFG [Compound ID 890]
6% | GQWHCTTRFPHHTCLYG [Compound ID 905]
20% | GAWHCTTLFPHHYCLYG [Compound ID 908]

The binders below were run against rat collagen (acid soluble, type I, rat tail, Upstate 08-115) (rat) (UniProt P02454) (assay: dried collagen assay, 5 uM each).
Sequence of rat collagen (acid soluble, type I, rat tail, Upstate 08-115) (rat) (P02454 152-1207, chain 1 of 2): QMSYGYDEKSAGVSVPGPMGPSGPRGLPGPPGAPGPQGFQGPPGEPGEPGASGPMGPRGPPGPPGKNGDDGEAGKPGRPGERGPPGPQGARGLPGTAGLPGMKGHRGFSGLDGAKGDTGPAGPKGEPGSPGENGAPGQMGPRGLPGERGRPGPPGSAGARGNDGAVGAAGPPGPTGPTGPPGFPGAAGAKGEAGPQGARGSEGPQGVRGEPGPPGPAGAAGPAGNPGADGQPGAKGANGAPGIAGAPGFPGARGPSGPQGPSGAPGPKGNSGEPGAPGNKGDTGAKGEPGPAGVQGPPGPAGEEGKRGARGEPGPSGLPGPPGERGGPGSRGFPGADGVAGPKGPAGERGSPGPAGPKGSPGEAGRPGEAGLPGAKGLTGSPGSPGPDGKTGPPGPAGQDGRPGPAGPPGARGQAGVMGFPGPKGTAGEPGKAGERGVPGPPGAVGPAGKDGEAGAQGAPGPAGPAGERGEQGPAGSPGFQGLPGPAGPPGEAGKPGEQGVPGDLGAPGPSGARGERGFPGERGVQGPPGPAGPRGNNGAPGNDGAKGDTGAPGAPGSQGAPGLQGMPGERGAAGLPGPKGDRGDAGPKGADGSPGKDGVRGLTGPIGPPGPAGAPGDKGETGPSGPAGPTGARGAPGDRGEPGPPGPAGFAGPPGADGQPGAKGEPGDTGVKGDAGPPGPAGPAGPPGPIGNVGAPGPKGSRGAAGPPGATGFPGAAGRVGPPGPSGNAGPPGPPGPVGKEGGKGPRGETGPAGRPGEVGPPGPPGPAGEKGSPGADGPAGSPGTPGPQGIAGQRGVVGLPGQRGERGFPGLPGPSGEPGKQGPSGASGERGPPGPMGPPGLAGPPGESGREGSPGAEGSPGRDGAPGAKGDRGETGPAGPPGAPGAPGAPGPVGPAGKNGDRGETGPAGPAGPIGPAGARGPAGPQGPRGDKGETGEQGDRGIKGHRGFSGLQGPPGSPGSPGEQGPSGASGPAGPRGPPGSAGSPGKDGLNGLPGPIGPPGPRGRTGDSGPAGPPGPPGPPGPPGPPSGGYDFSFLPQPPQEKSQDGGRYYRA
Sequence of rat collagen (acid soluble, type I, rat tail, Upstate 08-115) (rat) (P02466 86-1125, chain 2 of 2, further chain): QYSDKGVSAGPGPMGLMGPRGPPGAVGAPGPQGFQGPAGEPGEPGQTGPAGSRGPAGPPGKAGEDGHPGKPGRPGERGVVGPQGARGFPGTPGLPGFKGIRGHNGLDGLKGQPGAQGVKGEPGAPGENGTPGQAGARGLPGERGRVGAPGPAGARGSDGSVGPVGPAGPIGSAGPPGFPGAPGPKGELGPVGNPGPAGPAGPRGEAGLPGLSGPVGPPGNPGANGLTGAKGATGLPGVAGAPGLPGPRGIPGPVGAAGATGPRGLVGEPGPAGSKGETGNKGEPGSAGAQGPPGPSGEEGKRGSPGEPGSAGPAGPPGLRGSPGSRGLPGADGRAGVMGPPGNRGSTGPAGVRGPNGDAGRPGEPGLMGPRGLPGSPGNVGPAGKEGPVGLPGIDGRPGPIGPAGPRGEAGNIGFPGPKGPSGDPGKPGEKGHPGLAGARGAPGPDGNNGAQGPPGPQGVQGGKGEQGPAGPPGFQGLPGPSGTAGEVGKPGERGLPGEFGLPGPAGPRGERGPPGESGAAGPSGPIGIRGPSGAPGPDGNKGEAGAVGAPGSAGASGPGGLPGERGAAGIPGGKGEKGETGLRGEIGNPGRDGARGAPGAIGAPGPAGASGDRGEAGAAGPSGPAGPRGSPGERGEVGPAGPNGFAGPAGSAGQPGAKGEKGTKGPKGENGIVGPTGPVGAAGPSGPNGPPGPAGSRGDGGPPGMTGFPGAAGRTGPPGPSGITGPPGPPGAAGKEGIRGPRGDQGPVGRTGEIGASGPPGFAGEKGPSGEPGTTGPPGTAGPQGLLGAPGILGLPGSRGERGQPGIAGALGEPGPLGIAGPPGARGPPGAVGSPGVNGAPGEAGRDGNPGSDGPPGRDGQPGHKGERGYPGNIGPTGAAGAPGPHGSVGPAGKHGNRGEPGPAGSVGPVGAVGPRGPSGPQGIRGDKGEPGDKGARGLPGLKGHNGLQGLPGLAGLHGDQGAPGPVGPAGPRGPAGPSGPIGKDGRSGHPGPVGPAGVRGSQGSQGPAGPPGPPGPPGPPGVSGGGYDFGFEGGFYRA

Rat binding | Binder
57% | GQWHCTTAFPHHYCLYG [Compound ID 853]
63% | GQWHCTTLFPHHYCIYG [Compound ID 927]
1% | GQWHCTRRFPHHYCLYG [Compound ID 900]
9% | DWTCSGDEYYWHCNYE [Compound ID 834]
9% | GQWHCTTRFPHAYCLYG [Compound ID 878]
71% | GQWTCYGDEYTWYCNYE [Compound ID 826]
69% | GAWHCTTRFPHHYCLYG [Compound ID 857]
0% | GQWHCTTRFPSHYCLYG [Compound ID 880]
0% | GDWHCTTLFPHHYCLYG [Compound ID 910]
7% | DWTCSLDEYTWHCNYE [Compound ID 847]
45% | KKWHCYTYFPHHYCLYG [Compound ID 802]
20% | DWTCRGDEYTWHCNYE [Compound ID 822]
56% | PPQWHCTTRFPHHYCLYG [Compound ID 854]
28% | GQWSCTTRFPHHYCLYG [Compound ID 870]
17% | GQWHCTTRFPAHYCLYG [Compound ID 865]
8% | DWTCSSDEYTWHCNYE [Compound ID 836]
42% | GKWHCTTLFPHHYCLYG [Compound ID 930]
59% | GQWHCTTRFPHHYCKYG [Compound ID 815]
29% | GQWTCSGDAYTWHCAYE [Compound ID 820]
14% | GQWHCTYRFPHHYCLYG [Compound ID 899]

Rat binding | Binder
2% | GQWHCTTRFPHHRCLYG [Compound ID 902]
45% | {GdDTPA‑thiourea}-GQWHCTTRFPHHYCLYGK(GdDTPA‑thiourea)-NH2 (disulfide 5-14) [Compound ID 807]
0% | GSWHCTTLFPHHYCLYG [Compound ID 911]
61% | GQWTCSGDAYTWHCNYE [Compound ID 838]
9% | DWTCSGDEYTWYCNYE [Compound ID 842]
9% | DWTCSADEYTWHCNYE [Compound ID 835]
1% | GQWHCTTLFPHNYCLYG [Compound ID 924]
0% | GQWHCTT[Cha]FPHHYCLYG (disulfide 5-14 (inferred)) [Compound ID 918]
0% | GQWHCTTDYPHHYCLYG [Compound ID 895]
0% | PPWHCTTLFPHHYCLYG [Compound ID 912]
10% | DWTCSGDEYRWHCNYE [Compound ID 845]
0% | GAWHCTTYFPHHYCLYG [Compound ID 915]
35% | GQWHCTYLFPHHYCLYG [Compound ID 921]
11% | GAWTCSGDEYTWHCNYE [Compound ID 830]
3% | GQWHCTSRFPHHYCLYG [Compound ID 898]
29% | DWTCSRDEYTWHCNYE [Compound ID 821]
28% | GQWTCSGDEYTWHCNYA [Compound ID 841]
11% | GQWTCSGDEYTWHCAYE [Compound ID 839]
26% | GQWACTTRFPHHYCLYG [Compound ID 876]
0% | AWHCTTLFPHHYCLYG [Compound ID 909]

Rat binding | Binder
28% | GQWTCSGDEYTWHCNY [Compound ID 823]
58% | GQWNCTTLFPHHYCLYG [Compound ID 922]
0% | GQWHCTTIFPHHYCLYG [Compound ID 917]
34% | GQWHCTTFFPHHYCLYG [Compound ID 929]
10% | GQWHCTTLFPNHYCLYG [Compound ID 923]
0% | PWTCSGDEYAWHCNYE [Compound ID 824]
3% | GQWACSGDEYTWHCNYE [Compound ID 840]
21% | DWTCSYDEYTWHCNYE [Compound ID 829]
15% | GQWHCTTRFPHHYCAYG [Compound ID 855]
38% | GQWHCTTRYPHHYCLYG [Compound ID 859]
1% | GQWHCTNRFPHHYCLYG [Compound ID 897]
4% | GQWTCSGDEYTWACNYE [Compound ID 833]
4% | GQWTCSGDEYAWHCNYE [Compound ID 832]
41% | GQWHCATRFPHHYCLYG [Compound ID 877]
80% | GQWHCTTLFPHHYCVYG [Compound ID 928]
15% | GQWHCTTDFPHHYCLFG [Compound ID 890]
2% | GQWHCTTRFPHHTCLYG [Compound ID 905]
0% | GAWHCTTLFPHHYCLYG [Compound ID 908]
